Experimental data reported in publication PMC7370943.

Columns and labels:
[1] = molecular target: recombinant human IL-13 (human) (UniProt P35225)
[2] = molecular target: T1, recombinant human IL-33 (human)
T1 sequence (O95760 whole entry, looked up): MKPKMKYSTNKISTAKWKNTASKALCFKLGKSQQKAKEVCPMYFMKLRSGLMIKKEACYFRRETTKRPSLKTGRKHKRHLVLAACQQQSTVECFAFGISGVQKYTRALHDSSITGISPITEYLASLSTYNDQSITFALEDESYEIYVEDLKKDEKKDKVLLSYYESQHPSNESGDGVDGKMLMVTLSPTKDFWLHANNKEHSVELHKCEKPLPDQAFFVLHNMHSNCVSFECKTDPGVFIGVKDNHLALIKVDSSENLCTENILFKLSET

Sequence of UniProt P35225 (P35225 25-146): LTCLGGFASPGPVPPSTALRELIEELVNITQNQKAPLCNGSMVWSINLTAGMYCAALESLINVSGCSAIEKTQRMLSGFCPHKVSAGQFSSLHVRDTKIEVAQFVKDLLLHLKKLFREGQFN

human IL-4/13trap (from UniProt P78552 22-343; P24394 26-232) (receptor)
IC50 of inhibition of IL-13-induced STAT6-dependent luciferase activity in HEK293T cells transfected with human IL-4Rα and IL-13Rα1; cytokine pre-incubated with the trap [1]: 434 pM

human IL-33trap with 7xGGS linker (sIL-1RAcP-7xGGS-sST2) (from UniProt Q01638 19-328) (receptor)
IC50 of inhibition of IL-33-induced NF-κB luciferase reporter activity in HEK293T cells transfected with human ST2; IL-33 pre-incubated 30 min with the trap (blocks IL-33 acting on ST2 of the cells) [2]: 194 pM

human IL-33trap with 7xGGS linker and human IgG1 Fc (from UniProt Q9NPH3 21-367; Q01638 19-328) (Fc fusion)
IC50 of inhibition of IL-33-induced NF-κB luciferase reporter activity in HEK293T cells transfected with human ST2; IL-33 pre-incubated 30 min with the trap (blocks IL-33 acting on ST2 of the cells) [2]: 67 pM

human IL-33trap with 12xGGS linker (sIL-1RAcP-12xGGS-sST2) (from UniProt Q01638 19-328) (receptor)
IC50 of inhibition of IL-33-induced NF-κB luciferase reporter activity in HEK293T cells transfected with human ST2; IL-33 pre-incubated 30 min with the trap (blocks IL-33 acting on ST2 of the cells) [2]: 42 pM

human IL-33trap with 12xGGS linker and human IgG1 Fc (from UniProt Q9NPH3 21-367; Q01638 19-328) (Fc fusion)
IC50 of inhibition of IL-33-induced NF-κB luciferase reporter activity in HEK293T cells transfected with human ST2; IL-33 pre-incubated 30 min with the trap (blocks IL-33 acting on ST2 of the cells) [2]: 57 pM

human IL-33trap without Fc and GGS linker (sIL-1RAcP-sST2) (from UniProt Q01638 19-328) (receptor)
IC50 of inhibition of IL-33-induced NF-κB luciferase reporter activity in HEK293T cells transfected with human ST2; IL-33 pre-incubated 30 min with the trap (blocks IL-33 acting on ST2 of the cells) [2]: 748 pM

human IL-33trap without GGS linker fused to human IgG1 Fc (sIL-1RAcP-sST2-Fc) (from UniProt Q01638 19-328) (Fc fusion)
IC50 of inhibition of IL-33-induced NF-κB luciferase reporter activity in HEK293T cells transfected with human ST2; IL-33 pre-incubated 30 min with the trap (blocks IL-33 acting on ST2 of the cells) [2]: 90 pM
